T1: human C1s (human, UniProt P09871 16-688)
T1 construct: Analyte in the Biacore assays; also called hC1s; serum-derived human C1s (CompTech)
T1 sequence: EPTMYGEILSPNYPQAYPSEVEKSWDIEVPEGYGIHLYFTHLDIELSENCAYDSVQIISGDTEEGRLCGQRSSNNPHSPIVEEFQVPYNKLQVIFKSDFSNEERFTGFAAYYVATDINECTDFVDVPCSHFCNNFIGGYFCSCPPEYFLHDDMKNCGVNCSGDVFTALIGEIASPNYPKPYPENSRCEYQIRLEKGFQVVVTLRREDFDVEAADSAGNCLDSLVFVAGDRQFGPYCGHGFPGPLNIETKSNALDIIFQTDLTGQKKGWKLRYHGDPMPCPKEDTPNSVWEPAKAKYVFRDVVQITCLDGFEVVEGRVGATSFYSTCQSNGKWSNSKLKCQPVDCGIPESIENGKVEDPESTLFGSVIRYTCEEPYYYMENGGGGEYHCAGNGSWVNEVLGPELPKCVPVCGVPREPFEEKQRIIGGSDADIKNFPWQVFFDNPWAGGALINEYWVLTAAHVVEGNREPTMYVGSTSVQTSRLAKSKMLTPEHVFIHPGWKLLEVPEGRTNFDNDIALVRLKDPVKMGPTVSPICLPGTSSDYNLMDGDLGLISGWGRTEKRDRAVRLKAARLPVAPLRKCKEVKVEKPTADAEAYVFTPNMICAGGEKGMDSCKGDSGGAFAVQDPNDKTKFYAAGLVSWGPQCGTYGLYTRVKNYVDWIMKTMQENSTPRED


Columns and labels:
human C1s [1] = target: T1, human C1s; experiment: SPR (Biacore T200, 37C), Ab captured on protein A/G; pH 5.8, 1.2 mM Ca
Description: (§1) Each antibody was captured onto the sensor surface by protein A/G. Antibody capture levels were aimed at 200 resonance unit (RU). Serum-derived human C1s (CompTech) or recombinant C1s prepared in EXAMPLE 1 was injected at 50 nM, followed by dissociation. The sensor surface was regenerated in each cycle with 10 mM Glycine-HCl, pH 1.5. […] The ratio of KD 5.8+ to KD 7.4+(“KD 5+/7+”) and that of KD 5.8− to KD 7.4+(“KD 5−/7+”) were calculated. When the KD 5+/7+ or KD 5−/7+ of a variant is larger than that of the parent antibody IPN009VH2-SG4GK/IPN009VK3-SK1, that variant is considered to be “pH”- or “pH and Ca”-dependent, respectively. When binding response in 5(+) buffer and/or in 5(−) buffer of a variant is much lower than that of IPN09VH2/IPN009VK3, that variant is also considered as “pH”- and/or “pH and Ca”-dependent. Therefore, such mutations are effective to generate “pH”- and/or “pH and Ca”-dependent antibody. To further enhance “pH” and/or “pH and Ca” dependency, a combination of histidine mutations was conducted. Antibodies with combinations of histidine mutations were evaluated using Biacore by the method described above.
(§2) C1_1IPN92H0033 (SEQ ID NO: 17)-SG4GK/IPN93L0024 (SEQ ID NO: 18)-SK1 (IPN92H0033/IPN93L0024) was selected for further optimization. Histidine, Lysine, Arginine, aspartic acid, glutamic acid, and glutamine scanning was conducted for CDRs and certain positions of FRs of IPN92H0033/IPN93L0024. Variants with a mutation were generated and purified, and evaluated using Biacore by the method mentioned above. All variants were evaluated using Biacore as mentioned above. Mutations that improved “pH” and/or “pH and Ca” dependency were selected for the combination.

human C1s [2] = target: T1, human C1s; experiment: SPR; KD at pH 5.8 (3 uM Ca) over KD at pH 7.4 (1.2 mM Ca)
Description: as §1, §2

human C1s [3] = target: T1, human C1s; experiment: SPR (Biacore T200, 37C), Ab captured on protein A/G; pH 5.8, 3 uM Ca
Description: as §1, §2

human C1s [4] = target: T1, human C1s; experiment: SPR; KD at pH 5.8 (1.2 mM Ca) over KD at pH 7.4 (1.2 mM Ca)
Description: as §1, §2

| Binder | Kd (human C1s [1]) [nM] | koff (human C1s [1]) [s⁻¹] | kon (human C1s [1]) [M⁻¹ s⁻¹] | KD 5(-)/7(+) (human C1s [2]) | Kd (human C1s [3]) [nM] | koff (human C1s [3]) [s⁻¹] | kon (human C1s [3]) [M⁻¹ s⁻¹] | KD 5(+)/7(+) (human C1s [4]) |
| --- | --- | --- | --- | --- | --- | --- | --- | --- |
| C1_IPN92H0282-SG4GK/IPN93L0024-SK1 (antibody, human IgG4 S228P, kappa, name in Kabat numbering, V domains shown, Substitutions from IPN009VH2, Kabat numbering; also called IPN92H0282/IPN93L0024) VH: EVMLVESGGGLVKPGGSLRLSCAASGFTFSNYAMSWVRQAPGKGLEWVATISSGGSHTYELDSVDERFTISRDNSKDTLYLQMNSLRAEDTALYYCARLFTKHAMDYWGQGTLVTVSS VL: QIVLTQSPATLSLSPGERATLSCTASSSVSSSYLHWYQQKPGKAPKLWIYSTSNLASGVPSRFSGSGSGTDYTLTISSLQPEDFATYYCHQYYRLHPITFGQGTKLEIKR | 18 | 0.00998 | 553000 | 5.18 | 8.55 | 0.00327 | 382000 | 10.9 |
| C1_IPN92H0282-SG4GK/IPN93L0091-SK1 (antibody, human IgG4 S228P, kappa, name in Kabat numbering, V domains shown, Substitutions from IPN009VH2 / IPN009VK3, Kabat numbering; also called IPN92H0282/IPN93L0091) VH: EVMLVESGGGLVKPGGSLRLSCAASGFTFSNYAMSWVRQAPGKGLEWVATISSGGSHTYELDSVDERFTISRDNSKDTLYLQMNSLRAEDTALYYCARLFTKHAMDYWGQGTLVTVSS VL: QIVLTQSPATLSLSPGERATLSCTASSSVSSSRLHWYQQKPGKAPKLWIYSTSNLASGVPSRFSGSGSGTDYTLTISSLQPEDFATYYCHQYYRLHPITFGQGTKLEIKR | 16.9 | 0.00755 | 445000 | 1.13 | 2.21 | 0.00148 | 670000 | 8.6 |
| C1_IPN92H0286-SG4GK/IPN93L0205-SK1 (antibody, human IgG4 S228P, kappa, name in Kabat numbering, Substitutions from IPN009VH2 / IPN009VK3, Kabat numbering; also called IPN92H0286/IPN93L0205) heavy: not shown light: QIVLTQSPATLSLSPGERATLSCTASSSVSSSRLHWYQQKPGKAPKLWIYSTSNLASGVPSRFSGSGSGTDYTLTISSLQPEDFATYYCHQYHRHPPITFGQGTKLEIKRTVAAPSVFIFPPSDEQLKSGTASVVCLLNNFYPREAKVQWKVDNALQSGNSQESVTEQDSKDSTYSLSSTLTLSKADYEKHKVYACEVTHQGLSSPVTKSFNRGEC | 6.57 | 0.00346 | 527000 | 2.94 | 4.65 | 0.00477 | 1.03e+06 | 4.2 |
| C1_IPN92H0288-SG4GK/IPN93L0212-SK1 (antibody, human IgG4 S228P, kappa, name in Kabat numbering, V domains shown, VL substitutions from IPN009VK3, Kabat numbering; also called IPN92H0288/IPN93L0212) VH: EVMLVESGGGLVKPGGSLRLSCAASGFTFSNYAMSWVRQAPGKGLEWVATISSGGSHTYELDSVDGRFTISRDNSKDTLYLQMNSLRAEDTALYYCARLFTKHAMDYWGQGTLVTVSS VL: QIVLTQSPATLSLSPGERATLSCTASSEVSESRLHWYQQKPGKAPKLWIYSTSNLASGVPSRFSGSGSGTDYTLTISSLQPEDFATYYCHQYYRLHPITFGQGTKLEIKR | 21 | 0.0198 | 945000 | 3.75 | 6.79 | 0.00533 | 784000 | 11.6 |

Reference: patent US20210032365A1 (Chugai, published 2021)
